This is an account of results in article PMC7054387.

Data set [1] has as its target T1, H-NS (purified recombinant) (Escherichia coli K12 MG1655?) (UniProt P0ACF8).
T1 sequence: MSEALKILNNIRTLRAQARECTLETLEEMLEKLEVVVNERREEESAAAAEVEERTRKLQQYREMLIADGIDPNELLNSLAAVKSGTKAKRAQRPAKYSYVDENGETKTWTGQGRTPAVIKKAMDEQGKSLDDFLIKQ
The experiment in a line: EMSA. The settings on record: 1 mM Mg2+, EMSA: 0.5 pmol DNA in 20 µl 5 mM Tris-HCl pH 8.0, 1 mM MgCl2, 50 mM NaCl, 0.01 mM EDTA, 0.01 mM DTT, 3.3 mM imidazole, 40 min at 30°C, 5% PAAG, lysate series …. (In general: Mobility shift assays separate free from complexed probe on a gel.)

Data set [2] addresses T2, H-NS-His in cell lysate (Escherichia coli K12 MG1655?) (UniProt P0ACF8).
T2 sequence: T1 sequence
Put plainly: EMSA + anti-His Western. The settings on record: 0.01 mM EDTA, 0.01 mM DTT, 3.3 mM imidazole, 40 min at 30°C.

Where [3] appears, read: n=6, EMSA: 0.5 pmol DNA in 20 µl 5 mM Tris-HCl pH 8.0, 1 mM MgCl2, 50 mM NaCl, 5% …, lysate series wi.

On to “AGATCTGCAAGTAAAAATGATACTCTTTATATTTAAATTCAAACGGTTGACATATATATAGCACGAGGTTTCATGTGCGTAGTAGTGAGTTTATGTTATTAAACAGCTTAGTATGCGTTGGAAAGTGAAGCTTTGTAATAAGTTAGAATAAGACGCGACATACATATAACAATTTAATCTTAAATGTAGTCTATTAGCATTTGCAAACAAACAATTTGCGTATATACTATAAATGCACATCATCCTGATTGTGATTGTGTATTTAACTGGTTCTTATATGACTACTACCAACTAGGTTTAGTCTTATGATAGGTGCAGGATGGATTATGTTTACTCCGTAGTTTCCATCTGTCTATCATTAGATTTAATTATGAACAGGAGAGTTATCCTGTTCAAAAAAAATTCATTGTTTATTGTAAGCGACAAATCTAGA (double strand) [appY promoter, activated mutant (positive selection cycle 9)]”, for which the figures for the binding signal (% of initial fragment) in data set [1] (n=6) and in data set [2] (setting [3]) were 102 and 97.2, respectively.
Take “AGATCTGCAAGTAAAAATGATACTCTTTTTATATTAAATTCAAACGGTTGACATATATATAGCAAGAGGTTTCAGGTGCGTTGTAGCGAGTTTATGTTTATAAAAAGCATAGTAAGCGTTGAAAAATGTAACTTTGAAATAAGTTAGAATAAAAAACAACATACATATATTAATTTAATCCTAAATGAAATTTATTAAAATCTGCAAACTATAATTTTGTGTATAAAAATATAAATGCACATCATCCTGATTATGATTGTGTATTTAATTGGTTGTTATTTGACTACTATCAACTTGTTTTAATTTTATGATAGGTGCAAGGTGGATTATGTTTGATCCGTAGTTTTCATCTGTCAATCATTTGATTTAATTATAAACAGGAGAGTTATCTCGTTCAAAAAAATTCATTGTTTATTGTAAGCGACAAATCTAGA (double strand)”: the binding signal (% of initial fragment) amounted to 110 in data set [1] (p=0.78, n=6) and 117 in data set [2] (p=0.15, n=6, EMSA: 0.5 pmol DNA in 20 µl 5 mM Tris-HCl pH 8.0, 1 mM MgCl2, 50 mM NaCl, 5% PAAG, lysate series …).
Regarding “AGATCTTCCTCGGAGAAACACTGACACCCATACAGCTACTGGCGCTCGGCGCTATCATCGCCGCTTCAATGGGGTCTACGCAGACAGTACGCAAAGAGAGCAAAATAAAAGAATTAGACATTAATTAAATTTACATTTCTGCATGGTTATGCATAACCTTGCAGAATTTCTCGCTACTTTTCCCCTACACCGTCTTTATATATCGAATTATGCAAAAGCATATTTATTCCGAAAATTCCTGGCGAGCAGATAAATAAGAATTGTTCTTATCAATATATCTAACTCATTGAATCTTTATTAGTTGTGTTTTTCACGCTTGTTACCACTATTAGTGTGATAGGAACAGCCAGAATAGCGGAACACATAGCCGGTGCTATACATAGTCTCGTTAATTACTGGGACATAACATCTAGA (double strand) [dps promoter, down-regulated mutant (negative selection)]”, the binding signal (% of initial fragment) worked out at 117 in data set [1] (n=6, not significant) and 113 in data set [2] (setting [3]).
Consider “AGATCTTCCTCGGAGAAACACTGACACCCATACAGCTACTGGCGCTCGGCGCTATCATCGCCACTTCAATGGGGTCTACGCTGACAGTACGCAAAGAGAGCAAAATAAAAGAATTAGACATTAATTAAATTTACATTTCTGCATGGTTATGCATAACCATGCAGAATTTCTCGCTACTTTTCCTCTACACCGTCTTTATATATCGAATTATGCAAAAGCATATTTATTCCGAAAATTCCTGGCGAGCAGATAAATAAGAATTGTTCTTATCAATATATCTAACTCATTGAATCTTTATTAGTTTTGTTTTTCACGCTTGTTACCACTATTAGTGTGATAGGAACAGCCAGAATTGCGGAACACATAGCCGGTGCTATACTTAGTCTCGTTAATTACTGGGACATAACATCTAGA (double strand) [dps promoter, up-regulated mutant (positive selection)]”, for which the binding signal (% of initial fragment) in data set [1] (n=6) was determined as 100; in data set [2] (p=0.537, n=6, EMSA: 0.5 pmol DNA in 20 µl 5 mM Tris-HCl pH 8.0, 1 mM MgCl2, 50 mM NaCl, 5% PAAG, lysate series …) it was 129.
